In paper PMC3527362, “Structural and Functional Insights into (S)-Ureidoglycolate Dehydrogenase, a Metabolic Branch Point Enzyme in Nitrogen Utilization” (PLoS ONE, 2012):

Experiments:
[1] = target: T1, (S)-ureidoglycolate dehydrogenase (AllD) (Escherichia coli, UniProt P77555); assay: X-ray crystal structure, soaking, […] Å; type: binding; conditions: 100 mM NADH soak, pH 8.1; one NADH in each subunit; site includes residues of the other subunit
T1 construct: full length, modified pET28b with N-terminal His-tag and TEV site, expressed in E. coli BL21(DE3); tag cut for crystals, kept on mutant enzymes for kinetics; homodimer

[2] = target: T1, (S)-ureidoglycolate dehydrogenase (AllD); assay: X-ray crystal structure, soaking, […] Å; type: binding; conditions: ternary complex with NADH; soaked with 7.5 mM oxalurate reaction mixture, glyoxylate modelled in subunit A only, pH 8.1
purified protein [3] = substrate: NC(=O)N[C@@H](O)C(=O)O; assay: purified protein; type: biochemical, Escherichia coli; conditions: 3 mM NAD+ (saturating), 30 °C, value in parentheses is standard error
purified protein [4] = substrate: NC(=O)c1ccc[n+]([C@@H]2O[C@H](COP(=O)(O)OP(=O)(O)OC[C@H]3O[C@@H](n4cnc5c(N)ncnc54)[C@H](O)[C@@H]3O)[C@@H](O)[C@H]2O)c1; assay: purified protein; type: biochemical, Escherichia coli; conditions: 15.3 mM (S)-ureidoglycolate, 30 °C, value in parentheses is standard error
[5] = target: the molecule itself; assay: SEC; size-exclusion chromatography of AllD; conditions not described

NC(=O)C1=CN([C@@H]2O[C@H](COP(=O)(O)OP(=O)(O)OC[C@H]3O[C@@H](n4cnc5c(N)ncnc54)[C@H](O)[C@@H]3O)[C@@H](O)[C@H]2O)C=CC1 [NADH]
X-ray crystal structure, soaking, 1.64 Å [1]: 4H8A for the AllD-NADH binary complex

O=CC(=O)O [glyoxylate]
X-ray crystal structure, soaking, 1.77 Å [2]: 4FJU for the AllD-NADH-glyoxylate ternary complex

B1: (S)-ureidoglycolate dehydrogenase (AllD) (Escherichia coli K-12; Y52F) (protein)
chain: MKISRETLHQLIENKLCQAGLKREHAATVAEVLVYADARGIHSHGAVRVEYFAERISKGGTNREPEFRLEETGPCSAILHADNAAGQVAAKMGMEHAIKTAQQNGVAVVGISRMGHSGAISYFVQQAARAGFIGISMCQSDPMVVPFGGAEIYYGTNPLAFAAPGEGDEILTFDMATTVQAWGKVLDARSRNMSIPDTWAVDKNGVPTTDPFAVHALLPAAGPKGYGLMMMIDVLSGVLLGLPFGRQVSSMYDDLHAGRNLGQLHIVINPNFFSSSELFRQHLSQTMRELNAITPAPGFNQVYYPGQDQDIKQRKAAVEGIEIVDDIYQYLISDALYNTSYETKNPFAQ
notes: full length, modified pET28b with N-terminal His-tag and TEV site, expressed in E. coli BL21(DE3); tag cut for crystals, kept on mutant enzymes for kinetics; homodimer
Km (purified protein [3]; His-tag kept): 16.82 (3.92) mM
kcat (purified protein [3]; His-tag kept): 1.92 s⁻¹
kcat/Km (purified protein [3]; His-tag kept): 110 M⁻¹ s⁻¹

B2: (S)-ureidoglycolate dehydrogenase (AllD) (Escherichia coli K-12; S43A) (protein)
chain: MKISRETLHQLIENKLCQAGLKREHAATVAEVLVYADARGIHAHGAVRVEYYAERISKGGTNREPEFRLEETGPCSAILHADNAAGQVAAKMGMEHAIKTAQQNGVAVVGISRMGHSGAISYFVQQAARAGFIGISMCQSDPMVVPFGGAEIYYGTNPLAFAAPGEGDEILTFDMATTVQAWGKVLDARSRNMSIPDTWAVDKNGVPTTDPFAVHALLPAAGPKGYGLMMMIDVLSGVLLGLPFGRQVSSMYDDLHAGRNLGQLHIVINPNFFSSSELFRQHLSQTMRELNAITPAPGFNQVYYPGQDQDIKQRKAAVEGIEIVDDIYQYLISDALYNTSYETKNPFAQ
notes: as for B1
Km (purified protein [3]; His-tag kept): 10.75 (1.01) mM
kcat (purified protein [3]; His-tag kept): 1.37 s⁻¹
kcat/Km (purified protein [3]; His-tag kept): 130 M⁻¹ s⁻¹

B3: (S)-ureidoglycolate dehydrogenase (AllD) (Escherichia coli K-12; M251A) (protein)
chain: MKISRETLHQLIENKLCQAGLKREHAATVAEVLVYADARGIHSHGAVRVEYYAERISKGGTNREPEFRLEETGPCSAILHADNAAGQVAAKMGMEHAIKTAQQNGVAVVGISRMGHSGAISYFVQQAARAGFIGISMCQSDPMVVPFGGAEIYYGTNPLAFAAPGEGDEILTFDMATTVQAWGKVLDARSRNMSIPDTWAVDKNGVPTTDPFAVHALLPAAGPKGYGLMMMIDVLSGVLLGLPFGRQVSSAYDDLHAGRNLGQLHIVINPNFFSSSELFRQHLSQTMRELNAITPAPGFNQVYYPGQDQDIKQRKAAVEGIEIVDDIYQYLISDALYNTSYETKNPFAQ
notes: as for B1
Km (purified protein [3]; His-tag kept): 13.15 (1.62) mM
kcat (purified protein [3]; His-tag kept): 46 s⁻¹
kcat/Km (purified protein [3]; His-tag kept): 3490 M⁻¹ s⁻¹

B4: (S)-ureidoglycolate dehydrogenase (AllD) (Escherichia coli K-12; S140A) (protein)
chain: MKISRETLHQLIENKLCQAGLKREHAATVAEVLVYADARGIHSHGAVRVEYYAERISKGGTNREPEFRLEETGPCSAILHADNAAGQVAAKMGMEHAIKTAQQNGVAVVGISRMGHSGAISYFVQQAARAGFIGISMCQADPMVVPFGGAEIYYGTNPLAFAAPGEGDEILTFDMATTVQAWGKVLDARSRNMSIPDTWAVDKNGVPTTDPFAVHALLPAAGPKGYGLMMMIDVLSGVLLGLPFGRQVSSMYDDLHAGRNLGQLHIVINPNFFSSSELFRQHLSQTMRELNAITPAPGFNQVYYPGQDQDIKQRKAAVEGIEIVDDIYQYLISDALYNTSYETKNPFAQ
notes: as for B1
Km (purified protein [3]; His-tag kept): 12.38 (2.19) mM
kcat (purified protein [3]; His-tag kept): 1.29 s⁻¹
kcat/Km (purified protein [3]; His-tag kept): 100 M⁻¹ s⁻¹

B5: (S)-ureidoglycolate dehydrogenase (AllD) from Escherichia coli (enzyme, Escherichia coli str. K-12 substr. DH10b, UniProt P77555 1-349, looked up)
chain: MKISRETLHQLIENKLCQAGLKREHAATVAEVLVYADARGIHSHGAVRVEYYAERISKGGTNREPEFRLEETGPCSAILHADNAAGQVAAKMGMEHAIKTAQQNGVAVVGISRMGHSGAISYFVQQAARAGFIGISMCQSDPMVVPFGGAEIYYGTNPLAFAAPGEGDEILTFDMATTVQAWGKVLDARSRNMSIPDTWAVDKNGVPTTDPFAVHALLPAAGPKGYGLMMMIDVLSGVLLGLPFGRQVSSMYDDLHAGRNLGQLHIVINPNFFSSSELFRQHLSQTMRELNAITPAPGFNQVYYPGQDQDIKQRKAAVEGIEIVDDIYQYLISDALYNTSYETKNPFAQ
notes: (S)-ureidoglycolate dehydrogenase AllD, product of the allD gene of E. coli str; K-12 substr; DH10b; ordered residues in the crystals Met1 to Tyr337/Asn338 (subunit A); Homodimer; Cloned into a modified pET28b with a TEV site between the His-tag and the multicloning sites; also called EC 1.1.1.154; not shown: His-tag, N-terminal, cleaved
Km (purified protein [3]): 1.06 (0.08) mM
kcat (purified protein [3]): 57.1 s⁻¹
kcat/Km (purified protein [3]): 54300 M⁻¹ s⁻¹
Km (purified protein [4]): 0.56 (0.04) mM
kcat (purified protein [4]): 62.4 s⁻¹
kcat/Km (purified protein [4]): 110000 M⁻¹ s⁻¹
stoichiometry N [5]: 2

B6: (S)-ureidoglycolate dehydrogenase (AllD) (Escherichia coli K-12; R259A) (protein)
chain: MKISRETLHQLIENKLCQAGLKREHAATVAEVLVYADARGIHSHGAVRVEYYAERISKGGTNREPEFRLEETGPCSAILHADNAAGQVAAKMGMEHAIKTAQQNGVAVVGISRMGHSGAISYFVQQAARAGFIGISMCQSDPMVVPFGGAEIYYGTNPLAFAAPGEGDEILTFDMATTVQAWGKVLDARSRNMSIPDTWAVDKNGVPTTDPFAVHALLPAAGPKGYGLMMMIDVLSGVLLGLPFGRQVSSMYDDLHAGANLGQLHIVINPNFFSSSELFRQHLSQTMRELNAITPAPGFNQVYYPGQDQDIKQRKAAVEGIEIVDDIYQYLISDALYNTSYETKNPFAQ
notes: as for B1
Km (purified protein [3]; His-tag kept): 11.47 (1.25) mM
kcat (purified protein [3]; His-tag kept): 12 s⁻¹
kcat/Km (purified protein [3]; His-tag kept): 1040 M⁻¹ s⁻¹
Km (purified protein [4]; His-tag kept): 1.49 (0.07) mM
kcat (purified protein [4]; His-tag kept): 9.29 s⁻¹
kcat/Km (purified protein [4]; His-tag kept): 6230 M⁻¹ s⁻¹

B7: (S)-ureidoglycolate dehydrogenase (AllD) (Escherichia coli K-12; D141A) (protein)
chain: MKISRETLHQLIENKLCQAGLKREHAATVAEVLVYADARGIHSHGAVRVEYYAERISKGGTNREPEFRLEETGPCSAILHADNAAGQVAAKMGMEHAIKTAQQNGVAVVGISRMGHSGAISYFVQQAARAGFIGISMCQSAPMVVPFGGAEIYYGTNPLAFAAPGEGDEILTFDMATTVQAWGKVLDARSRNMSIPDTWAVDKNGVPTTDPFAVHALLPAAGPKGYGLMMMIDVLSGVLLGLPFGRQVSSMYDDLHAGRNLGQLHIVINPNFFSSSELFRQHLSQTMRELNAITPAPGFNQVYYPGQDQDIKQRKAAVEGIEIVDDIYQYLISDALYNTSYETKNPFAQ
notes: as for B1
Km (purified protein [3]; His-tag kept): 5.27 (0.46) mM
kcat (purified protein [3]; His-tag kept): 1.62 s⁻¹
kcat/Km (purified protein [3]; His-tag kept): 310 M⁻¹ s⁻¹

B8: (S)-ureidoglycolate dehydrogenase (AllD) (Escherichia coli K-12; D141E) (protein)
chain: MKISRETLHQLIENKLCQAGLKREHAATVAEVLVYADARGIHSHGAVRVEYYAERISKGGTNREPEFRLEETGPCSAILHADNAAGQVAAKMGMEHAIKTAQQNGVAVVGISRMGHSGAISYFVQQAARAGFIGISMCQSEPMVVPFGGAEIYYGTNPLAFAAPGEGDEILTFDMATTVQAWGKVLDARSRNMSIPDTWAVDKNGVPTTDPFAVHALLPAAGPKGYGLMMMIDVLSGVLLGLPFGRQVSSMYDDLHAGRNLGQLHIVINPNFFSSSELFRQHLSQTMRELNAITPAPGFNQVYYPGQDQDIKQRKAAVEGIEIVDDIYQYLISDALYNTSYETKNPFAQ
notes: as for B1
Km (purified protein [3]; His-tag kept): 14.13 (2.37) mM
kcat (purified protein [3]; His-tag kept): 1.67 s⁻¹
kcat/Km (purified protein [3]; His-tag kept): 120 M⁻¹ s⁻¹

B9: (S)-ureidoglycolate dehydrogenase (AllD) (Escherichia coli K-12; D141N) (protein)
chain: MKISRETLHQLIENKLCQAGLKREHAATVAEVLVYADARGIHSHGAVRVEYYAERISKGGTNREPEFRLEETGPCSAILHADNAAGQVAAKMGMEHAIKTAQQNGVAVVGISRMGHSGAISYFVQQAARAGFIGISMCQSNPMVVPFGGAEIYYGTNPLAFAAPGEGDEILTFDMATTVQAWGKVLDARSRNMSIPDTWAVDKNGVPTTDPFAVHALLPAAGPKGYGLMMMIDVLSGVLLGLPFGRQVSSMYDDLHAGRNLGQLHIVINPNFFSSSELFRQHLSQTMRELNAITPAPGFNQVYYPGQDQDIKQRKAAVEGIEIVDDIYQYLISDALYNTSYETKNPFAQ
notes: as for B1
Km (purified protein [3]; His-tag kept): 5.84 (0.25) mM
kcat (purified protein [3]; His-tag kept): 1.97 s⁻¹
kcat/Km (purified protein [3]; His-tag kept): 340 M⁻¹ s⁻¹

B10: (S)-ureidoglycolate dehydrogenase (AllD) (Escherichia coli K-12; H44A) (protein)
chain: MKISRETLHQLIENKLCQAGLKREHAATVAEVLVYADARGIHSAGAVRVEYYAERISKGGTNREPEFRLEETGPCSAILHADNAAGQVAAKMGMEHAIKTAQQNGVAVVGISRMGHSGAISYFVQQAARAGFIGISMCQSDPMVVPFGGAEIYYGTNPLAFAAPGEGDEILTFDMATTVQAWGKVLDARSRNMSIPDTWAVDKNGVPTTDPFAVHALLPAAGPKGYGLMMMIDVLSGVLLGLPFGRQVSSMYDDLHAGRNLGQLHIVINPNFFSSSELFRQHLSQTMRELNAITPAPGFNQVYYPGQDQDIKQRKAAVEGIEIVDDIYQYLISDALYNTSYETKNPFAQ
notes: as for B1
Km (purified protein [3]; His-tag kept): 16.94 (2.04) mM
kcat (purified protein [3]; His-tag kept): 1.76 s⁻¹
kcat/Km (purified protein [3]; His-tag kept): 100 M⁻¹ s⁻¹
